According to article PMC10093686, “Structural insights into acetylated histone ligand recognition by the BDP1 bromodomain of Plasmodium falciparum” (International journal of biological macromolecules, 2022):
No end group written: not given here.

Biological target: PfBDP1-BRD (residues 303–488 or 333–456), bromodomain of P. falciparum Bromodomain Protein 1, as used in ITC (P. falciparum) (UniProt Q8IJ72)
Test: ITC; histone peptide (2.5–5.0 mM) in the syringe, PfBDP1-BRD (303–488 or 333–456; 100–200 μM) in the sample cell; 5°C; 20 mM sodium phosphate pH 7.5, 150 mM NaCl, 1 mM TCEP; 1:1 binding model, single set of identical sites

B1: H2B.ZK3acK8acK13acK14acK18ac histone peptide, penta-acetylated histone H2B.Z (peptide)
peptide: SGK(Ac)GPAQK(Ac)SQAAK(Ac)K(Ac)TAGK(Ac)TLGPR
Q: How did the Kd turn out when B1 was run?
A: 1300 µM

Q: What about the stoichiometry N of the same binder?
A: 1
